Biological target: Taq DNA polymerase (UniProt P19821 P19821:1-832)
Assay: inhibition; >80% signal with target; 1.5 mM MgCl2
Settings: tags: Promega; partial duplex plus stabilizer hairpin

Sequence of Taq DNA polymerase (P19821 whole entry, one chain of several): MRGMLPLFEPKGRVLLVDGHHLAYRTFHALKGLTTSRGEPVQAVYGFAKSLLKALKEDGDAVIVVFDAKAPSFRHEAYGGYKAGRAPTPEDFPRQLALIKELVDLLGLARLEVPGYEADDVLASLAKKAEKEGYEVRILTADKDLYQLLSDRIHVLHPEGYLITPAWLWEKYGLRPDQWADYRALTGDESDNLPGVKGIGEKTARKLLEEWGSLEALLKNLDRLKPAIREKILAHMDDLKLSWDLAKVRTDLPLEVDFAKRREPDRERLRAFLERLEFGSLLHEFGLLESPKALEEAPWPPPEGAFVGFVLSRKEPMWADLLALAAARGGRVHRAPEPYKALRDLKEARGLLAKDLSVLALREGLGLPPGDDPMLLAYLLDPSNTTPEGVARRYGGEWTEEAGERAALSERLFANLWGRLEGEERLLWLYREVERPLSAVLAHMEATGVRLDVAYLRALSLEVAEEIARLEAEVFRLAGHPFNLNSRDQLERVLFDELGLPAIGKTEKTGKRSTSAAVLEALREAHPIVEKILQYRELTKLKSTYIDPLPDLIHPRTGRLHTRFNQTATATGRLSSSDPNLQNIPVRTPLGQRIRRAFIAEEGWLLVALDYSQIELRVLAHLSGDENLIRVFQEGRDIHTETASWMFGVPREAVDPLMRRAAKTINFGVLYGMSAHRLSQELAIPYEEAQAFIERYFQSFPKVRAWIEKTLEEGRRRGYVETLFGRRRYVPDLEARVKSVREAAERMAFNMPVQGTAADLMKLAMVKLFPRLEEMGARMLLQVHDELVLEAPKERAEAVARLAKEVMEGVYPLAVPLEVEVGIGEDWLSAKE

B1: hnRNPA2B1 Aptamer + hnRNPA2B1 specific strand (dsDNA)
DNA 1: TGCCTATCAGTATGACCAATGTACAGTATTGGTCA
DNA 2: TACTGATAGGCAGTCTGG
activity: < 10 % signal without target

B2: PCGEM1 Aptamer + PCGEM1 specific strand (dsDNA)
DNA 1: CCTCAGAAATCTCGGCAATGTACAGTATTGCCG
DNA 2: AGATTTCTGAGGGGAATT
activity: < 10 % signal without target

B3: NEAT1 Aptamer + NEAT1 specific strand (dsDNA)
DNA 1: TTAGCGCCAAACTAGCAATGTACAGTATTGCTA
DNA 2: GTTTGGCGCTAAACTCTT
activity: < 10 % signal without target

B4: ACTB Aptamer + ACTB specific strand (dsDNA)
DNA 1: ACGCAACTAAGTGACCAATGTACAGTATTGGTC
DNA 2: ACTTAGTTGCGTTACACC
activity: < 10 % signal without target

B5: GAPDH Aptamer + GAPDH specific strand (dsDNA)
DNA 1: TTCTCAAGACGGAATCAATGTACAGTATTGATT
DNA 2: CCGTCTTGAGAAACCTGC
activity: < 10 % signal without target

B6: miR-223-5p Aptamer + miR-223 specific strand (dsDNA)
DNA 1: ACAAGCTGAGTTCGCCAATGTACAGTATTGGCG
DNA 2: AACTCAGCTTGTCAAATA
activity: < 10 % signal without target

B7: miR-1827 Aptamer + miR-1827 specific strand (dsDNA)
DNA 1: AGTAGATTGAATCGGACAATGTACAGTATTGTCCG
DNA 2: ATTCAATCTACTGCCTCA
activity: < 10 % signal without target

B8: GAS5 Aptamer + GAS5 specific strand (dsDNA)
DNA 1: TGTCTTCATGTCTAGCCAATGTACAGTATTGGCTA
DNA 2: GACATGAAGACAGTTCCT
activity: < 10 % signal without target

From patent publication US20230357857, “NUCLEIC ACID NANOSTRUCTURES WITH TUNABLE FUNCTIONAL STABILITY” (National University of Singapore, published 2023)
